# In the DeepSol protein solubility set:
# Experiment: soluble on expression in E. coli; label from the status in PepcDB or PDB records
row,Sequence,soluble on expression in E. coli
1,MGSDKIHHHHHHMKEVVKLVLLGERQNSLNLSLYFNKYPPTIIYPEVLEDRNKKLASPSGSQRKISLLVLNQGVLQFNKIKETIEKSLPIETKVKLPQKAYELYKKYYQDYTDMLNSLHAITGKFKTQSRLVVGLGDESVYETSIRLLRNYGVPYIPGSAIKGVTRHLTYYVLAEFINEGNDFYKRAKTVQDAFMKGDPKEILSNAKVPERCSRLCKEFLRIFGEKKVPEIIDELIRIFGTQKKEGEVVFFDAIPIAEEIADKPILELDIMNPHYGPYYQSGEKNVPPPGDWYDPIPIFFLTVPKDVPFLVAVGGRDRELTEKAFSLVKLALRDLGVGAKTSLGYGRLVEYV,not soluble
2,MGSDKIHHHHHHMKFKERLQYLRLEKELSEIQLSKKVGISESVIRLYERGKLRIDLEHLHKLAAFFDVTPGLLLGTAFPHLPPEEALESYRVVNKLLEIRNEERKDEEDSPLFIDTLAQLAAESNKSDNKASNRQATIRAGVVAVYHKIVSAHSEANQEFIEDYWPVNTTVMQIYGHDISNYFYLRVHGDFMEPTIKNQSIVLAKRQVQVDNNDLAVVLYEQSPAAVKRLNRYEDKIILLCDNKAHPAQICEQEKCIILGKVLWKPK,not soluble
3,MGSDKIHHHHHHMKFTDIEYFDKLSELESFSKTAIFFNVSQPTISFAIQRLENEMKKTLINRNQSHGEISLTEAGKVFEKHAKKILQEVVAAHEEIDRMNQPTIEFGLPQIIGNYYLPKLVKHFVGNPFFQNVATNEAGSNLLLGALKNRRLDLAIISSVEPVKIEGLETIEIDRKKYSIVVNKDNPLAKQKKVSFEDLADEKFVSLKEGNVHPIAFRKLEETYNVYPKIIYETPDINILKKMIAEKTGIGFIVEIAVEKQDNLATLELSNEKVPEFIISFVYKKDLQIPGIKRIVEELRNNSVFDQDR,not soluble
4,MGSDKIHHHHHHMKGISHRIAIPLILEVGNNKIYNIGQIIKKGNFKRVSLYFGEGIYELFGETIEKSIKSSNIEIEAVETVKNIDFDEIGTNAFKIPAEVDALIGIGGGKAIDAVKYMAFLRKLPFISVPTSTSNDGFSSPVASLLINGKRTSVPAKTPDGIVVDIDVIKGSPEKFIYSGIGDLVSNITALYDWKFEEENHKSIIDDFAVMISKKSVNSFVRTDFKSIKDEVFLKELVDSLTMNGIAMEIAGNSSPASGAEHLISHALDKFLPNPQLHGIQVGVATYIMSKVHKHREERIKKILSDTGFFNYVKGLNMKKSDFKRAISEAHLIKPARYTYLHVEKNCETAKEIVDTDEILRNILV,not soluble
5,MGSDKIHHHHHHMKHIHIIGIGGTFMGGIAAIAKEAGFEVSGCDAKMYPPMSTQLEALGIGVYEGFDTAQLDEFKADVYVIGNVAKRGMDVVEAILNRGLPYISGPQWLAENVLHHHWVLGVAGTHGKTTTASMLAWVLEYAGLAPGFLIGGVPENFSVSARLPQTPRQDPNSQSPFFVIEADEYDTAFFDKRSKFVHYRPRTAVLNNLEFDHADIFADLGAIQTQFHHLVRTVPSEGLIVCNGRQQSLQDTLDKGCWTPVEKFGTEHGWQAGEANADGSFDVLLDGKKAGHVAWSLMGGHNRMNALAVIAAARHAGVDIQTACEALSTFKNVKRRMEIKGTANGITVYDDFAHHPTAIETTIQGLRQRVGGARILAVLEPRSNTMKLGTMKAALPASLKEADQVFCYAGGADWDVAEALAPLGGRLHVGKDFDAFVAEIVKNAEAGDHILVMSNGGFGGIHTKLLDALR,not soluble
6,MGSDKIHHHHHHMKIDRLIGIITILLQKERATIPQLAERFEVSCRTIQRDIDAIGQAGIPIVSRQGYGGGLSIADGYKLDKTVLTKKELQAILTGIRSIDSISKTTYGQTLIEKFANGKAAVLAEQDMILIDLASWYQDSLSDKIEQLRQAIFNREKVFFVYYSDKGESERLIEPYLILFKWAAWYVYGYCLTKNEYRLFKLNRLWKLKNTNLTYIPRNIPEGKLEFERYFQTEEIRLTALFDARAKYRLIEEYGPECFTVSEPDKLLFQRSFSNPEYLLQWLLSFGDRVRVIEPPELKANIQEHAKNMLRQDD,not soluble
7,MGSDKIHHHHHHMKILYIITGLPTGGAEMMLYKLLSQINQERFEPIVVSLMDRGTLGDRIEALGIPVHTIGMNRGGIPMPVDVWRLVHLVDRLQPDIIQGWMYHGNLAAQFASFLNGNKIPIVWSIHYSIDSLESDKKMTVAIIKFSAYISRLPKQVLFVSQNSKLQHEALGYSSKNSCIIPNGFDTISFSPSLTERVDVRSELSLPHESLLIGLICRYHPMKDHANFIQAAALFLKEHPNINFLMIGQGVDRDNPTLNKLIKELGIGDRISLLGERKDIPRLITSLDIFTSASAYGEAFPLVIGEAMSCGIPCVVTDVGDSGWIVGNTGKVIPPRNPQMLADAWKELIALGEEGRNILGKAARARITEDFALNSVVAKYELVYEKILSNMST,not soluble
8,MGSDKIHHHHHHMKIMVITKNILSETAFQNRLQHLDHQVFCTTCLIGEIKESHLFYRKFDAIILSETIPRKEQYLYLKELARVKTPLFLRSEDIPTSEELSISYQYGILNWLRLDATLDTLRENLLLAELNKPIQREDEKLDVEGIKLTAAERALLAVLYSTPKEHLPMERLCKLIYDTEETANNRKKMTKQLTKLNKKIQVGGFKKQGIQNTRYKGYKLHPQLLPYIGELFT,not soluble
9,MGSDKIHHHHHHMKISLAPISYCWSKSDVEHFYQQVALSNIDTVYLGETVCSRRRELKFNNYLDLANMLKSHGKHVVLSTMALIEAQSELNELKRAIDNGDFSIEANDMAAVHYAHQAKVPFVCGPTINNYNRTSLNLLHQKGMYRFVMPCELSQQWLNTVINQGDKPAFEIEVLGHGYLPLAHSARCFTAKHYQLPKDKCQTICQRHSKGLLAQTQESQPLLRLNGIQTQSAAQVNLINQIPQMIDMGIDYWRISPNKLTDVAMGSELAHVLAQITEDPFNSKALITKQFNDNKQASIINHHCNGYWLGLPGMDYSLEPNTPAG,not soluble
10,MGSDKIHHHHHHMKITKATDITLNDSCYLIYGNPGFGKTSVLKYIPGKTLVIDIDKSSKVLSGCENISIAEVDTHKIWDEWLNVVKELLKGAAEPFDTIVVDNVSELFRACLANLGREGKNHRVPSQADYQRVDFTILDSLRALLQLKKRIVFTAWETSDQWTDENGMIYNRAMPDIRSKILNNFLGLTDVVARLVKKTTEDGEEVRGFILQPSASVYAKNRLDDRKGCKVDELFTTELPS,not soluble
11,MGSDKIHHHHHHMKKFIVEPEFWELFPETKIGIVLAKNIDNSMESSAEIKKNLDEANENAEQFLEAAVFSENPVVSVWRKAYQKFKTKKGARSSIENLLKRVDKGKAVGSINPLVDIYNSISLNYGLPAGGEDIDTFAGNLRLTKAVGGEHFLALGDDEADNALPGEICYLDDEGAVCRSWNWRDGQRTMLTEQTKNAFLIIESVDPERGEVLDAATQKLAELSEKYLGGTAQVLLVTKENPEISLD,not soluble
12,MGSDKIHHHHHHMKKFTLDYLSPRVVFGAGTASALPDEIGRLGARRPLVLSSPEQRELAKDIVRPIGDRVAGYFDGATMHVPVDVIQKAERAFNDTDADSIIAIGGGSTTGLAKILSMNLDVPSLVIPTTYAGSEMTTIWGVTEGGMKRTGRDPKVLPKTVIYDPLLTVDLPLAISVTSALNAIAHAAEGLYSADLNPVLETMCKQGICALFDAIPRLVAKPTDAEARTDALFGAWMCGTALCHLGMGLHHKLCHTLGGTLNLPHAETHAIVLPHALAYNLPYAAPAERLLQEVAGSSDVPSALYDLARNAGAPLSLAEIGMRPEDIPRVRDLALRDQYPNPRPLESDALETLLVNAFRGRRPDFK,not soluble
13,MGSDKIHHHHHHMKKIAIFCHNFFSNGTVKIALSQAEVLQEAGQDVHLFVFHKEGDFMPPENVTIHYLYDAGQKPSLQEQRQHLKAKVAEAEQSGKFSLFLSNSTDCDVVVSGCDFEPCYYFCHCALKQELLMELKRGPVHFWRRWKKAKALIGKKIITVSNGIADELRATSWLKPQSVQTIYNPFRLEEIRKKTQEVIAEIPNVPYMIHVGRVTRQKRHDILFKALRDMPTAPKLVLLCNRPKKARKLAKKYGVEHRIITPGFQHNPYAWIAKAELMLLSSDFEGLPTVVIESLACGTPVVSTDCPHGPNEILTGHLAQYLVPVRQPALLAQKALECLASPPALDNLEILKAVDSQYIAAQYINLAQ,not soluble
14,MGSDKIHHHHHHMKKIRLGIYIEDSEYGDRLTCYFMNHYKVQLEIHMYTMKEQLEHLEGEIDIMLSSELDQWNNKYIPLIQIVEETPIESEEGIYFVEKYQEVNRIVEEILKHVGGEVRDLKSEGSLIGQTRLISVYSLADNQYQMPFAMTLSSILSENEKVLLMDFQENSGLSRMLEQSVEHNLDELLVMAESGRYSTNRINSCIGRKHKLDYVYPIENTECLCEINTVICNNLLQMLGKEMHYDCIVLNMGTRFKGFFDILDRCSDIYLVQKKGGISQWREYEFTEELMERGLSNVVERIKLIEPPVITTPVSTCDKLVELWKWNEFGDVIRNMTRGISCAG,not soluble
15,MGSDKIHHHHHHMKKISYIFASILLTASLSGCNDFLDVTPSDQYSDASVFTSTEGAQQVLIGAYDWFTNGHYAHYTNQYIFFMPDVMADDAMVNSTGNYNRFVSPYQYSITPSSTYSVDPWIGCYSLIDNCNAILDNLETLPESSERNRIEGESLALRTYAYHYLIRMYAKPVNKYPDNPGVILRLTSSTTDIPRSTVKDCYVQMVNDIEKACTLLTGTSSSSKCYITEQAAHGIAARIYLDLGDYTNGTSHANKALSEITLMSKADYKNKFCENNTETIWYFTCTSTDKQSFLSLPAFWYYCDQDSTYVKDGYSSLGVAKELIDIFDDTDIRKTLFVKIDGKYYKRNGSYVTCKINSRKNDDSDGTKGSGTVAFAEGDYNMMRGSEMYLIIAELAADNNHEDEALAALNKVREARGISAYSGTGDVLKTEIQNERRRELFAEGHRLFDLKRRDLPMDRSNLTLDWSRVGLIPAGSDKLEMPIPQNEIDANGALTIADQNPAYK,not soluble
16,MGSDKIHHHHHHMKKLICISLYEDLSMTTYDLSKVDNAELIGIVENASEGTLFVFTCDRPNGSSVIMCPGGGFLKTNLENEGIDFAEWFTKLGITYIVFKYRMPHGNPDVPEQDTRLALKVVREKFPEFCDKLGVMGASIGGYLATFSATLLPDDEKPDFQILMYPVVSVDDRLTHFPCRERMFGHSYSPDKMEQYSPIEHITSGTPAAFIVAAADDAVVSPLNGIMYAARLQKADIPISLHIYPAGGHGFGYNDSFVYKQEWLQELGEWLAKL,not soluble
17,MGSDKIHHHHHHMKKRFKYRTLEEMRWEAITLGIDLPLSGDFDVFRDLVDLGSKTIPNRFVDQPMEGNDAQLDGTPGPLTLRRYRKLAEGGAGVIWVEAIAVSREARGNDRQLMLTEETVNSFRSFVAEIKSVSLKTKNFEPYIVAQLTHPGRFGKNRKILFHDKFLDEKYGITEDFPLMSDEELDSLKEQYLRAAKFAKTAGFDAVDIKACHRYLLSELLAAHTREGKYGGSYENRTKLLKDIVRLVRKEVEIDITVRLNLSDFIPYPYGWGSTEEGTLDFTEPGRLLKELEELGVKIINVTASTPYLKPHINRPYDEMGKYNPPEHPIVGAMRLLNLAKLAKETLSKTLVVASGFTWFRQFAPYVAAGMLKNGWCDFVGFGRMTFAYPDYPKDILTKGELDPKKVCITCNKCAELKAAGESCGCVVRDGEVYLPIYRKMEESKKS,not soluble
18,MGSDKIHHHHHHMKKYVLSLALLGSLLGASELKYQEFDGFKSPESIFVDKNYVYVSNVGEKLEPLAKDNDGFISKLDKNGKVLEYKFLTHLNAPKGMMEIGKTLYVVDIDVLRGFDLKTKKEIFNLPIKGAIFLNDIEKLDDNTLLVSDTGTGLILKVDLKTKQYDELLKLDLAKFGGPNGLYLDRKKHKLFIAGYHPDGVSGGVVMAYDLNTKELSIIKNEKESYDGIVPYKDGLLVSSWGNNLNGYIYNLDNVKSVKLELPLMKGPADIFIEGNILWIPKMVEGKIFKVELNK,not soluble
